The text below walks through data of patent publication US20120195879A1.

No end group written: not given here.

One assay deals with human Kv1.1 (human) (UniProt Q09470). The experiment in a line: cell-based or functional assay.
The next assay has as its target human Kv1.3 (human) (UniProt P22001). In words: cell-based or functional assay.
A further assay deals with DNP(3)-BSA (bovine). In words: SPR (BIAcore 2000), antibody captured on anti-human IgG Fc surface, DNP-BSA injected; apparent constants.
Chain of DNP(3)-BSA (bovine) (P02769 25-607 limits assumed, form in doubt): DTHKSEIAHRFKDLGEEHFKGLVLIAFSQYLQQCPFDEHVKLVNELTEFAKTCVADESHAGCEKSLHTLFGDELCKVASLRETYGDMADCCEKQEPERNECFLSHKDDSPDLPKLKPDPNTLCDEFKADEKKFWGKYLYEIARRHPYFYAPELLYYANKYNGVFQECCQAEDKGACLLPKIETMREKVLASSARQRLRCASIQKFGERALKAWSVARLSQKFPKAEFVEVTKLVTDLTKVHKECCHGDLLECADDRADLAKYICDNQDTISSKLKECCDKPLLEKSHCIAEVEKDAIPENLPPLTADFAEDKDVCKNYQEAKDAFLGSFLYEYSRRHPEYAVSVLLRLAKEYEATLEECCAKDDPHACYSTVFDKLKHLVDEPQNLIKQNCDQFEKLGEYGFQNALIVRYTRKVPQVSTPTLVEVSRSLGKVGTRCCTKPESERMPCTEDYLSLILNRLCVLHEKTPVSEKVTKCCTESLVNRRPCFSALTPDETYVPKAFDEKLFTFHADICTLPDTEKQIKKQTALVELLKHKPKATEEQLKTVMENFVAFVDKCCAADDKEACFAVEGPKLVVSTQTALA
The target in another assay is DNP(31)-BSA (bovine) (UniProt P02769). The assay is described as above.
Chain of DNP(31)-BSA (bovine) (P02769 25-607 limits assumed, form in doubt): as above

In general, koff refers to a measure of how fast the partners let go of each other. Usually kon stands for a measure of how fast the partners come together.

Chain of human Kv1.3 (human) (P22001 whole entry): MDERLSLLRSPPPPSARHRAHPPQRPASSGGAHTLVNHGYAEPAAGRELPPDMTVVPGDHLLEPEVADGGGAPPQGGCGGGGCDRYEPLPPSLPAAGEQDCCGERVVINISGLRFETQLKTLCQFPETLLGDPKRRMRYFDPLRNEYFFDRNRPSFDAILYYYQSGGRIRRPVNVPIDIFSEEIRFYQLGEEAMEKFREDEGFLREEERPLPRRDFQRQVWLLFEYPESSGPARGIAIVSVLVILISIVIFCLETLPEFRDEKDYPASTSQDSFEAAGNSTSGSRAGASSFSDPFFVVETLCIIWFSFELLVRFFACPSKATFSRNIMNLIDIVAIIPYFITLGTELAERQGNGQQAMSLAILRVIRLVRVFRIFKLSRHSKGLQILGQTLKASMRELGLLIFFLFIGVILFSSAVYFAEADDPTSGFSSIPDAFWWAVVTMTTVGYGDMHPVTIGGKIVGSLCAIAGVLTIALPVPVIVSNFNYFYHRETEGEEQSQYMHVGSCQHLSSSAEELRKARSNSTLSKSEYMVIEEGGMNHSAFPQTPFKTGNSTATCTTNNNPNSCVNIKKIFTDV
Chain of human Kv1.1 (human) (Q09470 whole entry): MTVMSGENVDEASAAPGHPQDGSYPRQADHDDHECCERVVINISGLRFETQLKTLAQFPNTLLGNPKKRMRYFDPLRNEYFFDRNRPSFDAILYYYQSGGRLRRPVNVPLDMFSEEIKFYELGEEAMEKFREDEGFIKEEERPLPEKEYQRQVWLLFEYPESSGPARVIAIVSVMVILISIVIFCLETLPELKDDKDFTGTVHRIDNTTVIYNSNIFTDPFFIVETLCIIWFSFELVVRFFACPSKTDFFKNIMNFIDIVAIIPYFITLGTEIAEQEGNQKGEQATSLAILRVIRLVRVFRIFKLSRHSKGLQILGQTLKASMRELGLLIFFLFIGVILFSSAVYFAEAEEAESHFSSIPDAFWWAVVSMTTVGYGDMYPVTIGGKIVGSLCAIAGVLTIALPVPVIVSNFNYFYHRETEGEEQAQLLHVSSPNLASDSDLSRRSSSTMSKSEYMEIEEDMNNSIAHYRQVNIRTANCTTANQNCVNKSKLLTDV

Regarding Fc-GGGGSGGGGSRSCIDTIPKSRCTAFQCKHSMKYRLSFCRKTCGTC (Fc fusion, ends and bridges not checked; also: homodimer via Fc) [Bivalent Fc-L10-ShK[1-35] homodimer], the Kv1.1 (PX) IC50 with human Kv1.1 (human) was found to be 67 pM. In addition, in the assay with human Kv1.3 (human), the Kv1.1/Kv1.3 Selectivity Ratio by PX came out at 4.47; the Kv1.3 (PX) IC50 came out at 15 pM; the Potency Relative to ShK (WB, IL2) was determined as 5.76.

B1: aDNP 3B1 antibody (hybridoma) (antibody, human IgG2, kappa, V domains shown)
VH: QVQLQESGPGLVKPSETLSLTCTVSGGSISSYYWSWIRQPPGKGLEWIGYIYYSGNTNSNPSLKSRVTISVDTSKNQFSLKLSSVTAADTAVYYCARTYYDSSGYYYRAFDIWGQGTMVTVSS
VL: DIQMTQSPSSLSASEGDRVTITCRASQGIRNDLGWYQQKPGKAPKRLIYAASSLQSGVPLRFSGSGSGTEFTLTISSLQPEDFATYYCLQYNSYPWTFGQGTKVEIKR
As to B1, in the assay with DNP(3)-BSA (bovine), the Kd was determined as 3000 pM, the off-rate constant (koff) came to 0.00036 s⁻¹ and the on-rate (kon) was 140000 M⁻¹ s⁻¹. Besides, in the assay with DNP(31)-BSA (bovine), the Kd was 200 pM, the koff was 5.8e-05 s⁻¹ and the kon is 370000 M⁻¹ s⁻¹.

B2: aDNP 3B1 antibody (recombinant, IgG2) (antibody, V domains shown)
VH: QVQLQESGPGLVKPSETLSLTCTVSGGSISSYYWSWIRQPPGKGLEWIGYIYYSGNTNSNPSLKSRVTISVDTSKNQFSLKLSSVTAADTAVYYCARTYYDSSGYYYRAFDIWGQGTMVTVSS
VL: DIQMTQSPSSLSASEGDRVTITCRASQGIRNDLGWYQQKPGKAPKRLIYAASSLQSGVPLRFSGSGSGTEFTLTISSLQPEDFATYYCLQYNSYPWTFGQGTKVEIKR
As for B2, in the assay with DNP(31)-BSA (bovine), the Kd is 700 pM, the dissociation rate constant (koff) stood at 0.00031 s⁻¹ and the on-rate (kon) amounted to 420000 M⁻¹ s⁻¹.

B3: aDNP 3A1 antibody (hybridoma) (antibody, human IgG2, kappa, V domains shown)
VH: QVQLQESGPGLVKPSETLSLTCTVSGGSISHYYWSWIRQPPGKGLGWIGYIYYSGSTNYNPSLKSRVTISVDTSKNQFSLKLTSVTAADTAVYYCARARGDGYNYPDAFDIWGQGTMVTVSS
VL: DIQMTQSPSSVSASVGDRVTITCRASQGISNWLAWYQRKPGKAPKLLIYAASSLQSGVPSRFSGSGSGTDFTLTISSLQPEDFAAYYCQQASSFPWTFGQGTRVEIKR
With B3, in the assay with DNP(3)-BSA (bovine), the Kd came to 526000 pM, the dissociation rate constant (koff) came to 0.00065 s⁻¹ and the on-rate (kon) was determined as 1200 M⁻¹ s⁻¹. Besides, in the assay with DNP(31)-BSA (bovine), the Kd was found to be 9000 pM, the dissociation rate constant (koff) came to 0.00031 s⁻¹ and the kon was 34000 M⁻¹ s⁻¹.

For the molecule Fc-GGGGSGGGGSSCIDTIPKSRCTAFQCKHSMKYRLSFCRKTCGTC (Fc fusion, ends and bridges not checked; also: homodimer via Fc) [Bivalent Fc-L10-ShK[2-35] homodimer], the Kv1.1 (PX) IC50 with human Kv1.1 (human) was 411 pM. Also, in the assay with human Kv1.3 (human), the Kv1.1/Kv1.3 Selectivity Ratio by PX amounted to 3.54; the Kv1.3 (PX) IC50 is 116 pM; the Potency Relative to ShK (WB, IL2) was determined as 8.73.
